This is an account of results in patent US20210388087A1 (Chugai, published 2021).

T1: Human CD3eg linker (human)
T1 construct: Single-chain construct; also called recombinant human CD3
T1 chain: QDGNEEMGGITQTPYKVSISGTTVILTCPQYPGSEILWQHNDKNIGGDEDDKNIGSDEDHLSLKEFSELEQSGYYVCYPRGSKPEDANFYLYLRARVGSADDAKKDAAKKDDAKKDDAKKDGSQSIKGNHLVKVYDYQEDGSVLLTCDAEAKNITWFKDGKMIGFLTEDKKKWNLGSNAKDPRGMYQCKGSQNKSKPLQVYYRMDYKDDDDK

B1: H183/L072 VL N30K (antibody, name in Kabat numbering, V domains shown)
VH: QVQLVESGGGLVQPGRSLRLSCAASGFTFSNAWMHWVRQAPGKGLEWVAQIKDKGNAYAAYYAPSVKGRFTISRDDSKNSIYLQMNSLKTEDTAVYYCHYVHYASASTVLPAFGVDAWGQGTTVTVSS
VL: DIVMTQSPLSLPVTPGEPASISCQASQELVHMNRKTYLHWYQQKPGQAPRLLIYKVSNRFPGVPDRFSGSGSGTDFTLKISRVEAEDVGVYYCAQGTSVPFTFGQGTKLEIK
B2: H183/L072 VL N30Q (antibody, name in Kabat numbering, V domains shown)
VH: QVQLVESGGGLVQPGRSLRLSCAASGFTFSNAWMHWVRQAPGKGLEWVAQIKDKGNAYAAYYAPSVKGRFTISRDDSKNSIYLQMNSLKTEDTAVYYCHYVHYASASTVLPAFGVDAWGQGTTVTVSS
VL: DIVMTQSPLSLPVTPGEPASISCQASQELVHMNRQTYLHWYQQKPGQAPRLLIYKVSNRFPGVPDRFSGSGSGTDFTLKISRVEAEDVGVYYCAQGTSVPFTFGQGTKLEIK
B3: H183/L072 VL N53D (antibody, name in Kabat numbering, V domains shown)
VH: QVQLVESGGGLVQPGRSLRLSCAASGFTFSNAWMHWVRQAPGKGLEWVAQIKDKGNAYAAYYAPSVKGRFTISRDDSKNSIYLQMNSLKTEDTAVYYCHYVHYASASTVLPAFGVDAWGQGTTVTVSS
VL: DIVMTQSPLSLPVTPGEPASISCQASQELVHMNRNTYLHWYQQKPGQAPRLLIYKVSDRFPGVPDRFSGSGSGTDFTLKISRVEAEDVGVYYCAQGTSVPFTFGQGTKLEIK
B4: H183/L072 VL N53E (antibody, name in Kabat numbering, V domains shown)
VH: QVQLVESGGGLVQPGRSLRLSCAASGFTFSNAWMHWVRQAPGKGLEWVAQIKDKGNAYAAYYAPSVKGRFTISRDDSKNSIYLQMNSLKTEDTAVYYCHYVHYASASTVLPAFGVDAWGQGTTVTVSS
VL: DIVMTQSPLSLPVTPGEPASISCQASQELVHMNRNTYLHWYQQKPGQAPRLLIYKVSERFPGVPDRFSGSGSGTDFTLKISRVEAEDVGVYYCAQGTSVPFTFGQGTKLEIK
B5: H183/L072 VL N53A (antibody, name in Kabat numbering, V domains shown)
VH: QVQLVESGGGLVQPGRSLRLSCAASGFTFSNAWMHWVRQAPGKGLEWVAQIKDKGNAYAAYYAPSVKGRFTISRDDSKNSIYLQMNSLKTEDTAVYYCHYVHYASASTVLPAFGVDAWGQGTTVTVSS
VL: DIVMTQSPLSLPVTPGEPASISCQASQELVHMNRNTYLHWYQQKPGQAPRLLIYKVSARFPGVPDRFSGSGSGTDFTLKISRVEAEDVGVYYCAQGTSVPFTFGQGTKLEIK
B6: H183/L072 VL N30L (antibody, name in Kabat numbering, V domains shown)
VH: QVQLVESGGGLVQPGRSLRLSCAASGFTFSNAWMHWVRQAPGKGLEWVAQIKDKGNAYAAYYAPSVKGRFTISRDDSKNSIYLQMNSLKTEDTAVYYCHYVHYASASTVLPAFGVDAWGQGTTVTVSS
VL: DIVMTQSPLSLPVTPGEPASISCQASQELVHMNRLTYLHWYQQKPGQAPRLLIYKVSNRFPGVPDRFSGSGSGTDFTLKISRVEAEDVGVYYCAQGTSVPFTFGQGTKLEIK
B7: H183/L072 VL N53F (antibody, name in Kabat numbering, V domains shown)
VH: QVQLVESGGGLVQPGRSLRLSCAASGFTFSNAWMHWVRQAPGKGLEWVAQIKDKGNAYAAYYAPSVKGRFTISRDDSKNSIYLQMNSLKTEDTAVYYCHYVHYASASTVLPAFGVDAWGQGTTVTVSS
VL: DIVMTQSPLSLPVTPGEPASISCQASQELVHMNRNTYLHWYQQKPGQAPRLLIYKVSFRFPGVPDRFSGSGSGTDFTLKISRVEAEDVGVYYCAQGTSVPFTFGQGTKLEIK
B8: H183/L072 VL N30V (antibody, name in Kabat numbering, V domains shown)
VH: QVQLVESGGGLVQPGRSLRLSCAASGFTFSNAWMHWVRQAPGKGLEWVAQIKDKGNAYAAYYAPSVKGRFTISRDDSKNSIYLQMNSLKTEDTAVYYCHYVHYASASTVLPAFGVDAWGQGTTVTVSS
VL: DIVMTQSPLSLPVTPGEPASISCQASQELVHMNRVTYLHWYQQKPGQAPRLLIYKVSNRFPGVPDRFSGSGSGTDFTLKISRVEAEDVGVYYCAQGTSVPFTFGQGTKLEIK
B9: H183/L072 VL N30T (antibody, name in Kabat numbering, V domains shown)
VH: QVQLVESGGGLVQPGRSLRLSCAASGFTFSNAWMHWVRQAPGKGLEWVAQIKDKGNAYAAYYAPSVKGRFTISRDDSKNSIYLQMNSLKTEDTAVYYCHYVHYASASTVLPAFGVDAWGQGTTVTVSS
VL: DIVMTQSPLSLPVTPGEPASISCQASQELVHMNRTTYLHWYQQKPGQAPRLLIYKVSNRFPGVPDRFSGSGSGTDFTLKISRVEAEDVGVYYCAQGTSVPFTFGQGTKLEIK
B10: H183/L072 VL N30R (antibody, name in Kabat numbering, V domains shown)
VH: QVQLVESGGGLVQPGRSLRLSCAASGFTFSNAWMHWVRQAPGKGLEWVAQIKDKGNAYAAYYAPSVKGRFTISRDDSKNSIYLQMNSLKTEDTAVYYCHYVHYASASTVLPAFGVDAWGQGTTVTVSS
VL: DIVMTQSPLSLPVTPGEPASISCQASQELVHMNRRTYLHWYQQKPGQAPRLLIYKVSNRFPGVPDRFSGSGSGTDFTLKISRVEAEDVGVYYCAQGTSVPFTFGQGTKLEIK
B11: H183/L072 VL N30W (antibody, name in Kabat numbering, V domains shown)
VH: QVQLVESGGGLVQPGRSLRLSCAASGFTFSNAWMHWVRQAPGKGLEWVAQIKDKGNAYAAYYAPSVKGRFTISRDDSKNSIYLQMNSLKTEDTAVYYCHYVHYASASTVLPAFGVDAWGQGTTVTVSS
VL: DIVMTQSPLSLPVTPGEPASISCQASQELVHMNRWTYLHWYQQKPGQAPRLLIYKVSNRFPGVPDRFSGSGSGTDFTLKISRVEAEDVGVYYCAQGTSVPFTFGQGTKLEIK
B12: H183/L072 VL N30M (antibody, name in Kabat numbering, V domains shown)
VH: QVQLVESGGGLVQPGRSLRLSCAASGFTFSNAWMHWVRQAPGKGLEWVAQIKDKGNAYAAYYAPSVKGRFTISRDDSKNSIYLQMNSLKTEDTAVYYCHYVHYASASTVLPAFGVDAWGQGTTVTVSS
VL: DIVMTQSPLSLPVTPGEPASISCQASQELVHMNRMTYLHWYQQKPGQAPRLLIYKVSNRFPGVPDRFSGSGSGTDFTLKISRVEAEDVGVYYCAQGTSVPFTFGQGTKLEIK
B13: H183/L072 VL N30Y (antibody, name in Kabat numbering, V domains shown)
VH: QVQLVESGGGLVQPGRSLRLSCAASGFTFSNAWMHWVRQAPGKGLEWVAQIKDKGNAYAAYYAPSVKGRFTISRDDSKNSIYLQMNSLKTEDTAVYYCHYVHYASASTVLPAFGVDAWGQGTTVTVSS
VL: DIVMTQSPLSLPVTPGEPASISCQASQELVHMNRYTYLHWYQQKPGQAPRLLIYKVSNRFPGVPDRFSGSGSGTDFTLKISRVEAEDVGVYYCAQGTSVPFTFGQGTKLEIK
B14: H183/L072 VL N30S (antibody, name in Kabat numbering, V domains shown)
VH: QVQLVESGGGLVQPGRSLRLSCAASGFTFSNAWMHWVRQAPGKGLEWVAQIKDKGNAYAAYYAPSVKGRFTISRDDSKNSIYLQMNSLKTEDTAVYYCHYVHYASASTVLPAFGVDAWGQGTTVTVSS
VL: DIVMTQSPLSLPVTPGEPASISCQASQELVHMNRSTYLHWYQQKPGQAPRLLIYKVSNRFPGVPDRFSGSGSGTDFTLKISRVEAEDVGVYYCAQGTSVPFTFGQGTKLEIK

The target in this assay is T1, Human CD3eg linker. The assay is described as follows: SPR; fold vs parent H183/L072.
Turning to B1, the “fold change of affinity” value amounted to 1.3 fold.

For the molecule B2, the “fold change of affinity” value was determined as 1.2 fold.

Consider B3, for which the “fold change of affinity” value is 0.2 fold.

Turning to B4, the “fold change of affinity” value came to 0.5 fold.

As for B5, the “fold change of affinity” value came out at 0.6 fold.

As for B6, the “fold change of affinity” value came to 0.5 fold.

As for B7, the “fold change of affinity” value was 0.7 fold.

In the case of B8, the “fold change of affinity” value stood at 0.5 fold.

For B9, the “fold change of affinity” value was 0.1 fold.

As to B10, the “fold change of affinity” value is 1.5 fold.

Take B11: the “fold change of affinity” value was found to be 0.9 fold.

With B12, the “fold change of affinity” value is 1.6 fold.

With B13, the “fold change of affinity” value was 0.8 fold.

In the case of B14, the “fold change of affinity” value was 0 fold.
